In test [1] the target is secreted truncated recombinant human thyroid peroxidase (hTPO-M1) (human) (UniProt P07202). The test can be described thus: Scatchard analysis, 125I-TPO.
For test [2] the target is unchanged. Description: Scatchard analysis; unlabeled TPO competing with 125I-TPO for the Fab.
Test [3] has the same target. The test can be described thus: competition with serum TPO autoantibodies (5 sera); Protein A precipitation.
Test [4] has the same target. Description: Scatchard analysis; 125I-TPO with unlabeled TPO, anti-kappa/Sac-cel precipitation.
Test [5] shares this target. Description: confluent plaque lysis assay; competition of unlabeled TPO with 125I-TPO, densitometry.
Test [6] shares this target. Description: competition ELISA on secreted TPO; competitor: serum lambda TPO autoantibodies (4 sera). On the technique in general: In an ELISA, binding on a coated surface is turned into a signal by an enzyme label.
The target is the same in test [7]. Description: competition ELISA on secreted TPO; competitor: serum IgG1 TPO autoantibody, first patient. Also noted: concentration or dose not given beside the values.
For test [8] the target is unchanged. The test can be described thus: competition ELISA on secreted TPO; competitor: serum IgG2 TPO autoantibody, third patient. Further details: concentration or dose not given beside the values.
The target is the same in test [9]. Description: competition ELISA on secreted TPO; competitor: serum IgG4 TPO autoantibody, first patient. Further details: concentration or dose not given beside the values.
Test [10] has the same target. The test can be described thus: competition ELISA on secreted TPO; competitor: serum IgG1 TPO autoantibody, second patient. Also noted: concentration or dose not given beside the values.
Test [11] has the same target. Description: competition ELISA on secreted TPO; competitor: serum IgG4 TPO autoantibody, second patient. Also noted: concentration or dose not given beside the values.
For test [12] the target is unchanged. Description: competition with serum TPO autoantibodies (11 sera); SP1.2 10^-10 to 10^-7 M; Protein A precipitation.
A further test has as its system CHO-TPO12b cells. Description: Radiolabeled D-glucosamine incorporation into proteins, control experiment. The note with it: tunicamycin treatment under similar conditions (0.5 μg/ml, 20 hours); mean±S.D.; n=3. It counts as cell-based, Chinese hamster. How it is done: Human TPO contains 5 potential glycosylation sites. It was therefore examined whether carbohydrate moieties are important in the conformation of the epitope(s) in the human TPO antigen(s) recognized by Hashimoto's sera. Western blot analyses were performed on proteins extracted from CHO-TPO12b cells pre-cultured for 20 hours in 0.5 μg/ml tunicamycin, an inhibitor of protein glycosylation. This length of time was chosen because it was the longest tolerated without evidence of significant toxicity (i.e., cell loss). […] In a control experiment, tunicamycin treatment under similar conditions decreased radiolabeled D-glucosamine incorporation into proteins by 56.3±4.8% (mean±S.D.; n=3).

For a further test, the system named is Thyroid Peroxidase (TPO). Description: Assay of human TPO enzymatic activity (guaiacol and iodide peroxidase). It counts as biochemical. The conditions noted are these: conditioned medium of transfected CHO cells, collected after 3 days of culture. How it is done: […] P., et al., Endocrinol. 116:1493-1500 (1985)). In later experiments, a more rapid method was used. Cells were suspended with a rubber scraper in 1.5 ml calcium-magnesium free Dulbecco's phosphate-buffered saline and protein determined on a 5 ul aliquot. […] […] One guaiacol unit is defined as a _A470 of 1.0 per minute which is equivalent to 150 nmols guaiacol oxidized per minute (Chance, B., et al., In Methods in Enzymology (Colonic. S. P., et al.), Academic Press, New York 2:164-[…] (1955)). One unit of iodide peroxidase is defined as a _A353 of 1.0 per minute which corresponds to 43 nmols I3-formed per minute (Magnusson, R. P., et al., J. Biol. Chem. 259:13783-13790 (1984)).

Test [13] has as its target T1, recombinant human thyroid peroxidase (hTPO), full-length wild-type, expressed in CHO cells (human, UniProt P07202 19-933).
T1 construct: Used on intact CHO cells (FACS), as CHO microsomes (ELISA) and as non-denatured detergent extracts (non-reducing Western blot, immunoprecipitation); also called human TPO; thyroid microsomal antigen
T1 sequence: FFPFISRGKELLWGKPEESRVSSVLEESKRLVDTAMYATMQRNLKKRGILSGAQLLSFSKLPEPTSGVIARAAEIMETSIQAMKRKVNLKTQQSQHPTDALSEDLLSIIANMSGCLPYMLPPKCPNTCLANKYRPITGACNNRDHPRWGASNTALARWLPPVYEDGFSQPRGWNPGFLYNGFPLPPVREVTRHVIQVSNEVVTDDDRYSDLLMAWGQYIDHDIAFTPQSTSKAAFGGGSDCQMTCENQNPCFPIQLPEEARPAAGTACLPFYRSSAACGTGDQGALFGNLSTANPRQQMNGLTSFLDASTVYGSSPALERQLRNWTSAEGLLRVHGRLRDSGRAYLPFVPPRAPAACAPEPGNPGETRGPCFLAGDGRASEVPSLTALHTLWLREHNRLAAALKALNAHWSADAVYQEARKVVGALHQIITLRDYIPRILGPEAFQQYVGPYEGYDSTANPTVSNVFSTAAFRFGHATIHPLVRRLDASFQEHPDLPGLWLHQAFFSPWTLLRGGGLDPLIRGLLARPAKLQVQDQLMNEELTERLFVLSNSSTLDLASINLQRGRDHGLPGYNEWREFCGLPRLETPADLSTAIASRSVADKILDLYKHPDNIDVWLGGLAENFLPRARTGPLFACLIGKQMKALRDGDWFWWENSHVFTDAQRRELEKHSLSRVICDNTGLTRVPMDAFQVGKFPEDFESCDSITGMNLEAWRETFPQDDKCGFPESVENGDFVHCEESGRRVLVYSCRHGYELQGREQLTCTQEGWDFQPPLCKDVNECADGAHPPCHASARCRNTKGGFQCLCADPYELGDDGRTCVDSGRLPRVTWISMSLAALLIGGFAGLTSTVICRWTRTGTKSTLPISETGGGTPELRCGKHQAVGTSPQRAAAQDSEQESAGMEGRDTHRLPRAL
Description: lectin affinity chromatography of 35S-labeled CHO-TPO extract, then immunoprecipitation.
Description: After incubation overnight at 4° C., 150 µl of IgG-Sorb were added, and the tubes rotated end over end for 2–4 hours at room temperature. The IgG-Sorb was recovered by centrifugation for 5 minutes at 10,000× g, washed 5 times with 1 ml of immunoprecipitation buffer, and then once with 10 mM Tris, pH 7.5, 2 mM EDTA and 0.5% Na dodecylsufate. Finally, the pellet was resuspended in Laemmli sample buffer (31), with 50 mM dithiothreitol (DTT), boiled for 3 minutes, and applied to 6% polyacrylamide gels. […] Autoradiography was performed with Kodak XAR-5 film.
After application to the columns, the unbound proteins were removed by washing with 50 ml of the foregoing Buffer A's. […] Fractions of 0.5 ml were collected and counted for radioactivity in a liquid scintillation counter.

Several values for one entry are separate records, joined by “and”; a condition that tells them apart may be missing. Equal values may be shown once.

The text below walks through data of patent US7196181B1, “Sequences encoding novel human thyroid peroxidase proteins and polypeptides” (Quest Diagnostics Investments, Inc., priority 1989, dated 2007).

As usually defined, the Kd is the concentration at which binding is half-saturated. One may read the % inhibition as the percentage by which the read-out fell short of the control.

In the case of human TPO-specific Fab fragment SP1.2, the Kd in test [1] was 0.06 nM and 0.08 nM; in test [2], 0.083 nM; in test [4] it was 0.08 nM; in test [5], 1 nM. For the same molecule, the mean % inhibition of serum autoantibody binding to 125I-TPO in test [3] stood at 55%. The % inhibition in test [6] is 12 to 18%; in test [7], 14%; in test [8] it was 29%; in [9], 77%; in [10], 62%; in test [11], 13%. For the same molecule, the maximum % inhibition of serum autoantibody binding to 125I-TPO in test [12] lay in the range of 36 to 72%.
Consider tunicamycin, for which, in the test on CHO-TPO12b cells, the “Decrease of radiolabeled D-glucosamine incorporation into proteins” value was determined as 56.3±4.8%.

B1: mutated form of hTPO: truncated, secreted recombinant human TPO (848 amino acids) from CHO-TPO-M1-K1 cells (protein)
chain: FFPFISRGKELLWGKPEESRVSSVLEESKRLVDTAMYATMQRNLKKRGILSGAQLLSFSKLPEPTSGVIARAAEIMETSIQAMKRKVNLKTQQSQHPTDALSEDLLSIIANMSGCLPYMLPPKCPNTCLANKYRPITGACNNRDHPRWGASNTALARWLPPVYEDGFSQPRGWNPGFLYNGFPLPPVREVTRHVIQVSNEVVTDDDRYSDLLMAWGQYIDHDIAFTPQSTSKAAFGGGSDCQMTCENQNPCFPIQLPEEARPAAGTACLPFYRSSAACGTGDQGALFGNLSTANPRQQMNGLTSFLDASTVYGSSPALERQLRNWTSAEGLLRVHGRLRDSGRAYLPFVPPRAPAACAPEPGNPGETRGPCFLAGDGRASEVPSLTALHTLWLREHNRLAAALKALNAHWSADAVYQEARKVVGALHQIITLRDYIPRILGPEAFQQYVGPYEGYDSTANPTVSNVFSTAAFRFGHATIHPLVRRLDASFQEHPDLPGLWLHQAFFSPWTLLRGGGLDPLIRGLLARPAKLQVQDQLMNEELTERLFVLSNSSTLDLASINLQRGRDHGLPGYNEWREFCGLPRLETPADLSTAIASRSVADKILDLYKHPDNIDVWLGGLAENFLPRARTGPLFACLIGKQMKALRDGDWFWWENSHVFTDAQRRELEKHSLSRVICDNTGLTRVPMDAFQVGKFPEDFESCDSITGMNLEAWRETFPQDDKCGFPESVENGDFVHCEESGRRVLVYSCRHGYELQGREQLTCTQEGWDFQPPLCKDVNECADGAHPPCHASARCRNTKGGFQCLCADPYELGDDGRTCVDSGRLPRVT
Turning to B1, the “TPO activity in culture medium” value in the test with Thyroid Peroxidase (TPO) worked out at 1.0 guaiacol U/10 ml medium.

B2: Ulex europaeus lectin (agarose-bound) (other)
chain: SDDLSFKFKNFSQNGKDLSFQGDASVIETGVLQLNKVGNNLPDETGGIARYIAPIHIWNCNTGEVASFITSFSFFMETSANPKAATDGLTFFLAPPDSPLRRAGGYFGLFEDTKDNDSSYQTVAVEFDTIGSPVNFDDPGFPHIGIDVNRVKSINAERWNKRYGLNNVANVEIIYEASSKTLTASLTYPSDQTSISVTSIVDLKEILPEWVSVGFSGGTYIGRQATHEVLNWYFTSNLINTNS
modifications: Lectin immobilised on agarose beads. The native lectin is a glycosylated homodimer; one subunit is given.
notes: also called UEA-F
B2: the binding result in test [13] was “no binding”.

B3: wild-type hTPO: full-length membrane-associated recombinant human TPO expressed in CHO cells (protein, UniProt P07202 1-933, looked up)
chain: MRALAVLSVTLVMACTEAFFPFISRGKELLWGKPEESRVSSVLEESKRLVDTAMYATMQRNLKKRGILSPAQLLSFSKLPEPTSGVIARAAEIMETSIQAMKRKVNLKTQQSQHPTDALSEDLLSIIANMSGCLPYMLPPKCPNTCLANKYRPITGACNNRDHPRWGASNTALARWLPPVYEDGFSQPRGWNPGFLYNGFPLPPVREVTRHVIQVSNEVVTDDDRYSDLLMAWGQYIDHDIAFTPQSTSKAAFGGGADCQMTCENQNPCFPIQLPEEARPAAGTACLPFYRSSAACGTGDQGALFGNLSTANPRQQMNGLTSFLDASTVYGSSPALERQLRNWTSAEGLLRVHARLRDSGRAYLPFVPPRAPAACAPEPGIPGETRGPCFLAGDGRASEVPSLTALHTLWLREHNRLAAALKALNAHWSADAVYQEARKVVGALHQIITLRDYIPRILGPEAFQQYVGPYEGYDSTANPTVSNVFSTAAFRFGHATIHPLVRRLDASFQEHPDLPGLWLHQAFFSPWTLLRGGGLDPLIRGLLARPAKLQVQDQLMNEELTERLFVLSNSSTLDLASINLQRGRDHGLPGYNEWREFCGLPRLETPADLSTAIASRSVADKILDLYKHPDNIDVWLGGLAENFLPRARTGPLFACLIGKQMKALRDGDWFWWENSHVFTDAQRRELEKHSLSRVICDNTGLTRVPMDAFQVGKFPEDFESCDSITGMNLEAWRETFPQDDKCGFPESVENGDFVHCEESGRRVLVYSCRHGYELQGREQLTCTQEGWDFQPPLCKDVNECADGAHPPCHASARCRNTKGGFQCLCADPYELGDDGRTCVDSGRLPRVTWISMSLAALLIGGFAGLTSTVICRWTRTGTKSTLPISETGGGTPELRCGKHQAVGTSPQRAAAQDSEQESAGMEGRDTHRLPRAL
modifications: full-length
notes: full-length membrane-associated recombinant human TPO expressed in CHO cells
Take B3: in the test with Thyroid Peroxidase (TPO), the “TPO activity in culture medium” value is recorded as “no detectable enzymatic activity”.

B4: peanut agglutinin (agarose-bound lectin) (other, UniProt P02872 24-259, looked up)
chain: AETVSFNFNSFSEGNPAINFQGDVTVLSNGNIQLTNLNKVNSVGRVLYAMPVRIWSSATGNVASFLTSFSFEMKDIKDYDPADGIIFFIAPEDTQIPAGSIGGGTLGVSDTKGAGHFVGVEFDTYSNSEYNDPPTDHVGIDVNSVDSVKTVPWNSVSGAVVKVTVIYDSSTKTLSVAVTNDNGDITTIAQVVDLKAKLPERVKFGFSASGSLGGRQIHLIRSWSFTSTLITTTRRS
notes: also called PNA
B4: in test [13], the binding result is reported as “no binding”.
